B1: Serine/threonine-protein kinase PLK4 (Mus musculus), Q64702 (parent)
chain: MAACIGERIEDFKVGNLLGKGSFAGVYRAESIHTGLEVAIKMIDKKAMYKAGMVQRVQNEVKIHCQLKHPSVLELYNYFEDNNYVYLVLEMCHNGEMNRYLKNRMKPFSEREARHFMHQIITGMLYLHSHGILHRDLTLSNILLTRNMNIKIADFGLATQLNMPHEKHYTLCGTPNYISPEIATRSAHGLESDIWSLGCMFYTLLIGRPPFDTDTVKNTLNKVVLADYEMPAFLSREAQDLIHQLLRRNPADRLSLSSVLDHPFMSRNPSPKSKDVGTVEDSMDSGHATLSTTITASSGTSLSGSLLDRRLLVGQPLPNKITVFQKNKNSSDFSSGDGSNFCTQWGNPEQEANSRGRGRVIEDAEERPHSRYLRRAHSSDRASPSNQSRAKTYSVERCHSVEMLSKPRRSLDENQHSSNHHCLGKTPFPFADQTPQMEMVQQWFGNLQMNAHLGETNEHHTVSPNRDFQDYPDLQDTLRNAWTDTRASKNADTSANVHAVKQLSAMKYMSAHHHKPEVMPQEPGLHPHSEQSKNRSMESTLGYQKPTLRSITSPLIAHRLKPIRQKTKKAVVSILDSEEVCVELLRECASEGYVKEVLQISSDGTMITVYYPNDGRGFPLADRPPLPTDNISRYSFDNLPEKYWRKYQYASRFIQLVRSKTPKITYFTRYAKCILMENSPGADFEVWFYDGAKIHKTENLIHIIEKTGISYNLKNENEVTSLKEEVKVYMDHANEGHRICLSLESVISEEEKRSRGSSFFPIIVGRKPGNTSSPKALSAPPVDPSCCKGEQASASRLSVNSAAFPTQSPGLSPSTVTVEGLGHTATATGTGVSSSLPKSAQLLKSVFVKNVGWATQLTSGAVWVQFNDGSQLVVQAGVSSISYTSPDGQTTRYGENEKLPEYIKQKLQCLSSILLMFSNPTPNFQ

Variants of: B1
Settings: with MBP

Q: With D154N as the variant, how does the “effect of a mutation on the interaction” value read?
A: The value was “disrupting interaction”.

Variants of: B1
Settings: with ccnb3_human CCNB3, Q8WWL7
Sequence of ccnb3_human CCNB3, Q8WWL7 (Q8WWL7 whole entry): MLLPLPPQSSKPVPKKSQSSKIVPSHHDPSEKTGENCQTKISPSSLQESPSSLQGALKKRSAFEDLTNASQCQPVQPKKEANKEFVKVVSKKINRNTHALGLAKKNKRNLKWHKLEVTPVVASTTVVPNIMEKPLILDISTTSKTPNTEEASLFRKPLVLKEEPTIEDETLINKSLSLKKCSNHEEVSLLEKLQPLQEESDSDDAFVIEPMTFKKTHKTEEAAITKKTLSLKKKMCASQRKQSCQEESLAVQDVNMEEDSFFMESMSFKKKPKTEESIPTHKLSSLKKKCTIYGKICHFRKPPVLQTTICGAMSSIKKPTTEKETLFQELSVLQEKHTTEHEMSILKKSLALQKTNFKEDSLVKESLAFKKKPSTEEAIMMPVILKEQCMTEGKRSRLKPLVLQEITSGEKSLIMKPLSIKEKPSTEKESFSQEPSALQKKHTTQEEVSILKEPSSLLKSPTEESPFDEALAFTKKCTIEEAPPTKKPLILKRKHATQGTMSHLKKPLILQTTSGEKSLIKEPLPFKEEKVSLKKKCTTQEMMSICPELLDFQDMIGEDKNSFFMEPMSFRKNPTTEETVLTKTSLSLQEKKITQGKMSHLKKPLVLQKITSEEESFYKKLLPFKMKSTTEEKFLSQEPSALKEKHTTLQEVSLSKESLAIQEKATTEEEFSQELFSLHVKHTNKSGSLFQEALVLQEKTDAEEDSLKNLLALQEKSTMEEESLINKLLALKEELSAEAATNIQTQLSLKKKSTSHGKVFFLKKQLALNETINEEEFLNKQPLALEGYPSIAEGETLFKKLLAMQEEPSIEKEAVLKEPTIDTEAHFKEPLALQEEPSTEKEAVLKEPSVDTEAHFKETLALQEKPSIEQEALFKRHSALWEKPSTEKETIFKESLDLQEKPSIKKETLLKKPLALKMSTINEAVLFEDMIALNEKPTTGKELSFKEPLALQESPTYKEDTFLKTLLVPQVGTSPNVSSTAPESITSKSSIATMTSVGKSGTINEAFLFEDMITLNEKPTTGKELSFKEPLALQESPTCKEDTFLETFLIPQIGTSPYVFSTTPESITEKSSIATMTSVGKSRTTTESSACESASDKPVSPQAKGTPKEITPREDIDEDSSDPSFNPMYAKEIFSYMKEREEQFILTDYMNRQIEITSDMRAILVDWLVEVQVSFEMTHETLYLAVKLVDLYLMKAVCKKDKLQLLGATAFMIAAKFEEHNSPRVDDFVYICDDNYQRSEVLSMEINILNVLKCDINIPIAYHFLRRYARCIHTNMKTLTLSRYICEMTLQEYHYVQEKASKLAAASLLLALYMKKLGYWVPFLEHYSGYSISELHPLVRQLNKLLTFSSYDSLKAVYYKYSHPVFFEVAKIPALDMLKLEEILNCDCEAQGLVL

Q: D154N was tested. Which “effect of a mutation on the interaction” value did it give?
A: The value was “disrupting interaction”.

Reference: IntAct's records for PubMed 17174311
